Results on 3 proteins are retold here after publication PMC11187625, “New Labeled PET Analogues Enable the Functional Screening and Characterization of PET-Degrading Enzymes” (ACS Sustainable Chemistry & Engineering, 2024).

Holding throughout (test): fluorescence, 4-mU release
Common to all, as to conditions: 0.1 M phosphate pH 7, 30 °C, 5% DMSO

Substrate in data set [1]: CCOCCOC(=O)c1ccc(C(=O)Oc2ccc3c(C)cc(=O)oc3c2)cc1
The format is biochemical, unidentified prokaryotic organism. The source says:
(§1) fluorescence, 4-mU release on LCC^ICCG (leaf-branch compost cutinase ICCG variant)

Substrate in data set [2]: COC(=O)c1ccc(C(=O)OCCOC(=O)c2ccc(C(=O)Oc3ccc4c(C)cc(=O)oc4c3)cc2)cc1
The format is biochemical, unidentified prokaryotic organism.
Source text: as §1

Substrate in data set [3]: COC(=O)c1ccc(C(=O)Oc2ccc3c(C)cc(=O)oc3c2)cc1
The format is biochemical, unidentified prokaryotic organism.
Source text: as §1

Substrate in data set [4]: CCOCCOC(=O)c1ccc(C(=O)Oc2ccc3c(C)cc(=O)oc3c2)cc1
The format is biochemical, Thermothelomyces thermophilus. The source says:
(§2) fluorescence, 4-mU release on StGE2 (glucuronoyl esterase)

Substrate in data set [5]: COC(=O)c1ccc(C(=O)Oc2ccc3c(C)cc(=O)oc3c2)cc1
The data set is classed as biochemical, Thermothelomyces thermophilus.
Source text: as §2

Substrate in data set [6]: CCOCCOC(=O)c1ccc(C(=O)Oc2ccc3c(C)cc(=O)oc3c2)cc1
The format is biochemical, Pseudideonella sakaiensis. The source says: (§3) fluorescence, 4-mU release on IsPETase

Substrate in data set [7]: COC(=O)c1ccc(C(=O)OCCOC(=O)c2ccc(C(=O)Oc3ccc4c(C)cc(=O)oc4c3)cc2)cc1
The format is biochemical, Pseudideonella sakaiensis.
Source text: as §3

Substrate in data set [8]: COC(=O)c1ccc(C(=O)Oc2ccc3c(C)cc(=O)oc3c2)cc1
The format is biochemical, Pseudideonella sakaiensis.
Source text: as §3

B1: LCC^ICCG (leaf-branch compost cutinase ICCG variant) (unidentified prokaryotic organism; D238C/F243I/S283C/Y127G) (protein)
chain: QSNPYQRGPNPTRSALTADGPFSVATYTVSRLSVSGFGGGVIYYPTGTSLTFGGIAMSPGYTADASSLAWLGRRLASHGFVVLVINTNSRFDGPDSRASQLSAALNYLRTSSPSAVRARLDANRLAVAGHSMGGGGTLRIAEQNPSLKAAVPLTPWHTDKTFNTSVPVLIVGAEADTVAPVSQHAIPFYQNLPSTTPKVYVELCNASHIAPNSNNAAISVYTISWMKLWVDNDTRYRQFLCNVNDPALCDFRTNNRHCQ
notes: recombinant engineered variant ICCG, pET-22b(+), E. coli BL21, intracellular fraction, purified
On to B1, for which the Km in data set [1] came out at 7.2 ± 0.7 µM; in data set [2], 21.7 ± 2.8 µM; in data set [3], 1.6 ± 0.1 µM. Besides, the kcat came to 5.8e-05 ± 2e-06 s⁻¹ in data set [1], 1.3e-05 ± 1e-06 s⁻¹ in data set [2] and 3.4e-05 ± 1e-06 s⁻¹ in data set [3].

B2: StGE2 (glucuronoyl esterase) (Thermothelomyces thermophilus ATCC 42464) (protein)
chain: APMNHIFERQDTCSVSDNYPTVNSAKLPDPFTTASGEKVTTKDQFECRRAEINKILQQYELGEYPGPPDSVEASLSGNSITVRVTVGSKSISFSASIRKPSGAGPFPAIIGIGGASIPIPSNVATITFNNDEFGAQMGSGSRGQGKFYDLFGRDHSAGSLTAWAWGVDRLIDGLEQVGAQASGIDTKRLGVTGCSRNGKGAFITGALVDRIALTIPQESGAGGAACWRISDQQKAAGANIQTAAQIITENPWFSRNFDPHVNSITSVPQDHHLLAALIVPRGLAVFENNIDWLGPVSTTGCMAAGRLIYKAYGVPNNMGFSLVGGHNHCQFPSSQNQDLNSYINYFLLGQGSPSGVEHSDVNVNVAEWAPWGAGAPTLA
notes: recombinant, expressed in Komagataella phaffii (Pichia pastoris), purified
Turning to B2, the Km in data set [4] worked out at 4.7 ± 0.4 µM; in data set [5] it was 0.7 ± 0.1 µM.

B3: IsPETase (Pseudideonella sakaiensis) (protein)
chain: QTNPYARGPNPTAASLEASAGPFTVRSFTVSRPSGYGAGTVYYPTNAGGTVGAIAIVPGYTARQSSIKWWGPRLASHGFVVITIDTNSTLDQPSSRSSQQMAALRQVASLNGTSSSPIYGKVDTARMGVMGWSMGGGGSLISAANNPSLKAAAPQAPWDSSTNFSSVTVPTLIFACENDSIAPVNSSALPIYDSMSRNAKQFLEINGGSHSCANSGNSNQALIGKKGVAWMKRFMDNDTRYSTFACENPNSTRVSDFRTANCS
notes: recombinant, pET-22b(+), E. coli BL21, intracellular fraction, purified
As for B3, the values for the Km in data set [6], in data set [7] and in data set [8] were 9.3 ± 0.8 µM, 34.1 ± 5.5 µM and 6.7 ± 0.6 µM, respectively. The results for the kcat in data set [6] and in data set [8] were 3.8e-05 ± 1e-06 s⁻¹ and 5e-05 ± 2e-06 s⁻¹, respectively.
